B1: 4G8.3-GS(11)-9E8.4 (g) DVD-Ig (PR-1572103) (bispecific antibody, human IgG1, kappa, L234A L235A)
heavy: EVQLVQSGSELKKPGASVKVSCKASGYTFTNYGMYWVRQAPGQGLEWMGWINTETGKPTYADDFKGRFVFSLDTSVSTAYLQISSLKAEDTAVYYCARTNYYYRSYIFYFDYWGQGTMVTVSSGGGGSGGGGSEVTLRESGPALVKPTQTLTLTCTFSGFSLSTYGMGVGWIRQPPGKALEWLANIWWDDDKYYNPSLKNRLTISKDTSKNQVVLTMTNMDPVDTATYYCARIESIGTTYSFDYWGQGTMVTVSSASTKGPSVFPLAPSSKSTSGGTAALGCLVKDYFPEPVTVSWNSGALTSGVHTFPAVLQSSGLYSLSSVVTVPSSSLGTQTYICNVNHKPSNTKVDKKVEPKSCDKTHTCPPCPAPEAAGGPSVFLFPPKPKDTLMISRTPEVTCVVVDVSHEDPEVKFNWYVDGVEVHNAKTKPREEQYNSTYRVVSVLTVLHQDWLNGKEYKCKVSNKALPAPIEKTISKAKGQPREPQVYTLPPSREEMTKNQVSLTCLVKGFYPSDIAVEWESNGQPENNYKTTPPVLDSDGSFFLYSKLTVDKSRWQQGNVFSCSVMHEALHNAYTQKSLSLSPGK
light: DTVLTQSPATLSLSPGERATLSCRASESVSTHMHWYQQKPGQAPRLLIYGASNLESGVPARFSGSGSGTDFTLTISSLEPEDFAVYFCQQSWNDPFTFGQGTKLEIKRGGSGGGGSGGEFVLTQSPGTLSLSPGERATLSCERSSGDIGDSYVSWYQQKPGQAPRLVIYADDQRPSGIPDRFSGSGSGTDFTLTISRLEPEDFAVYYCQSYDINIDIVFGGGTKVEIKRTVAAPSVFIFPPSDEQLKSGTASVVCLLNNFYPREAKVQWKVDNALQSGNSQESVTEQDSKDSTYSLSSTLTLSKADYEKHKVYACEVTHQGLSSPVTKSFNRGEC
B2: 4G8.3-GS(noR)-9E8.4 (g) DVD-Ig (PR-1572104) (bispecific antibody, human IgG1, kappa, L234A L235A)
heavy: EVQLVQSGSELKKPGASVKVSCKASGYTFTNYGMYWVRQAPGQGLEWMGWINTETGKPTYADDFKGRFVFSLDTSVSTAYLQISSLKAEDTAVYYCARTNYYYRSYIFYFDYWGQGTMVTVSSGGGGSGGGGSEVTLRESGPALVKPTQTLTLTCTFSGFSLSTYGMGVGWIRQPPGKALEWLANIWWDDDKYYNPSLKNRLTISKDTSKNQVVLTMTNMDPVDTATYYCARIESIGTTYSFDYWGQGTMVTVSSASTKGPSVFPLAPSSKSTSGGTAALGCLVKDYFPEPVTVSWNSGALTSGVHTFPAVLQSSGLYSLSSVVTVPSSSLGTQTYICNVNHKPSNTKVDKKVEPKSCDKTHTCPPCPAPEAAGGPSVFLFPPKPKDTLMISRTPEVTCVVVDVSHEDPEVKFNWYVDGVEVHNAKTKPREEQYNSTYRVVSVLTVLHQDWLNGKEYKCKVSNKALPAPIEKTISKAKGQPREPQVYTLPPSREEMTKNQVSLTCLVKGFYPSDIAVEWESNGQPENNYKTTPPVLDSDGSFFLYSKLTVDKSRWQQGNVFSCSVMHEALHNAYTQKSLSLSPGK
light: DTVLTQSPATLSLSPGERATLSCRASESVSTHMHWYQQKPGQAPRLLIYGASNLESGVPARFSGSGSGTDFTLTISSLEPEDFAVYFCQQSWNDPFTFGQGTKLEIKGGSGGGGSGGEFVLTQSPGTLSLSPGERATLSCERSSGDIGDSYVSWYQQKPGQAPRLVIYADDQRPSGIPDRFSGSGSGTDFTLTISRLEPEDFAVYYCQSYDINIDIVFGGGTKVEIKRTVAAPSVFIFPPSDEQLKSGTASVVCLLNNFYPREAKVQWKVDNALQSGNSQESVTEQDSKDSTYSLSSTLTLSKADYEKHKVYACEVTHQGLSSPVTKSFNRGEC
B3: 9A8.12-SL-9E8.4E DVD-Ig (PR-1577166) (bispecific antibody, human IgG1, kappa, L234A L235A)
heavy: EVQLVQSGAEVKKPGASVKVSCKASGYTFTNYGMYWVRQAPGQGLEWMGWINTETGKPIYADDFKGRVTMTTDTSTSTAYMELRSLRSDDTAVYYCARVDYDGSFWFAYWGQGTLVTVSSASTKGPEVTLRESGPALVKPTQTLTLTCTFSGFSLSTYGMGVGWIRQPPGKALEWLANIWWDDDKYYNPSLKNRLTISKDTSKNQVVLTMTNMDPVDTATYYCARIESIGTTYSFDYWGQGTMVTVSSASTKGPSVFPLAPSSKSTSGGTAALGCLVKDYFPEPVTVSWNSGALTSGVHTFPAVLQSSGLYSLSSVVTVPSSSLGTQTYICNVNHKPSNTKVDKKVEPKSCDKTHTCPPCPAPEAAGGPSVFLFPPKPKDTLMISRTPEVTCVVVDVSHEDPEVKFNWYVDGVEVHNAKTKPREEQYNSTYRVVSVLTVLHQDWLNGKEYKCKVSNKALPAPIEKTISKAKGQPREPQVYTLPPSREEMTKNQVSLTCLVKGFYPSDIAVEWESNGQPENNYKTTPPVLDSDGSFFLYSKLTVDKSRWQQGNVFSCSVMHEALHNAYTQKSLSLSPGK
light: DTQLTQSPSSLSASVGDRVTITCRASESVSTVIHWYQQKPGKQPKLLIHGASNLESGVPSRFSGSGSGTDFTLTISSLQPEDFATYFCQQHWNDPPTFGQGTKLEIKRTVAAPSVFIFPPEFVLTQSPGTLSLSPGERATLSCERSSGDIGESYVSWYQQKPGQAPRLVIYADDQRPSGIPDRFSGSGSGTDFTLTISRLEPEDFAVYYCQSYDINIDIVFGGGTKVEIKRTVAAPSVFIFPPSDEQLKSGTASVVCLLNNFYPREAKVQWKVDNALQSGNSQESVTEQDSKDSTYSLSSTLTLSKADYEKHKVYACEVTHQGLSSPVTKSFNRGEC
B4: 4G8.3-LS-9E8.4 (g) DVD-Ig (PR-1572106) (bispecific antibody, human IgG1, kappa, L234A L235A)
heavy: EVQLVQSGSELKKPGASVKVSCKASGYTFTNYGMYWVRQAPGQGLEWMGWINTETGKPTYADDFKGRFVFSLDTSVSTAYLQISSLKAEDTAVYYCARTNYYYRSYIFYFDYWGQGTMVTVSSASTKGPSVFPLAPEVTLRESGPALVKPTQTLTLTCTFSGFSLSTYGMGVGWIRQPPGKALEWLANIWWDDDKYYNPSLKNRLTISKDTSKNQVVLTMTNMDPVDTATYYCARIESIGTTYSFDYWGQGTMVTVSSASTKGPSVFPLAPSSKSTSGGTAALGCLVKDYFPEPVTVSWNSGALTSGVHTFPAVLQSSGLYSLSSVVTVPSSSLGTQTYICNVNHKPSNTKVDKKVEPKSCDKTHTCPPCPAPEAAGGPSVFLFPPKPKDTLMISRTPEVTCVVVDVSHEDPEVKFNWYVDGVEVHNAKTKPREEQYNSTYRVVSVLTVLHQDWLNGKEYKCKVSNKALPAPIEKTISKAKGQPREPQVYTLPPSREEMTKNQVSLTCLVKGFYPSDIAVEWESNGQPENNYKTTPPVLDSDGSFFLYSKLTVDKSRWQQGNVFSCSVMHEALHNAYTQKSLSLSPGK
light: DTVLTQSPATLSLSPGERATLSCRASESVSTHMHWYQQKPGQAPRLLIYGASNLESGVPARFSGSGSGTDFTLTISSLEPEDFAVYFCQQSWNDPFTFGQGTKLEIKRTVAAPEFVLTQSPGTLSLSPGERATLSCERSSGDIGDSYVSWYQQKPGQAPRLVIYADDQRPSGIPDRFSGSGSGTDFTLTISRLEPEDFAVYYCQSYDINIDIVFGGGTKVEIKRTVAAPSVFIFPPSDEQLKSGTASVVCLLNNFYPREAKVQWKVDNALQSGNSQESVTEQDSKDSTYSLSSTLTLSKADYEKHKVYACEVTHQGLSSPVTKSFNRGEC
B5: 4G8.3-LS-9E8.4E DVD-Ig (PR-1575835) (bispecific antibody, human IgG1, kappa, L234A L235A)
heavy: EVQLVQSGSELKKPGASVKVSCKASGYTFTNYGMYWVRQAPGQGLEWMGWINTETGKPTYADDFKGRFVFSLDTSVSTAYLQISSLKAEDTAVYYCARTNYYYRSYIFYFDYWGQGTMVTVSSASTKGPSVFPLAPEVTLRESGPALVKPTQTLTLTCTFSGFSLSTYGMGVGWIRQPPGKALEWLANIWWDDDKYYNPSLKNRLTISKDTSKNQVVLTMTNMDPVDTATYYCARIESIGTTYSFDYWGQGTMVTVSSASTKGPSVFPLAPSSKSTSGGTAALGCLVKDYFPEPVTVSWNSGALTSGVHTFPAVLQSSGLYSLSSVVTVPSSSLGTQTYICNVNHKPSNTKVDKKVEPKSCDKTHTCPPCPAPEAAGGPSVFLFPPKPKDTLMISRTPEVTCVVVDVSHEDPEVKFNWYVDGVEVHNAKTKPREEQYNSTYRVVSVLTVLHQDWLNGKEYKCKVSNKALPAPIEKTISKAKGQPREPQVYTLPPSREEMTKNQVSLTCLVKGFYPSDIAVEWESNGQPENNYKTTPPVLDSDGSFFLYSKLTVDKSRWQQGNVFSCSVMHEALHNAYTQKSLSLSPGK
light: DTVLTQSPATLSLSPGERATLSCRASESVSTHMHWYQQKPGQAPRLLIYGASNLESGVPARFSGSGSGTDFTLTISSLEPEDFAVYFCQQSWNDPFTFGQGTKLEIKRTVAAPEFVLTQSPGTLSLSPGERATLSCERSSGDIGESYVSWYQQKPGQAPRLVIYADDQRPSGIPDRFSGSGSGTDFTLTISRLEPEDFAVYYCQSYDINIDIVFGGGTKVEIKRTVAAPSVFIFPPSDEQLKSGTASVVCLLNNFYPREAKVQWKVDNALQSGNSQESVTEQDSKDSTYSLSSTLTLSKADYEKHKVYACEVTHQGLSSPVTKSFNRGEC
B6: 9A8.12-GS-9E8.4E DVD-Ig (PR-1577165) (bispecific antibody, human IgG1, kappa, L234A L235A)
heavy: EVQLVQSGAEVKKPGASVKVSCKASGYTFTNYGMYWVRQAPGQGLEWMGWINTETGKPIYADDFKGRVTMTTDTSTSTAYMELRSLRSDDTAVYYCARVDYDGSFWFAYWGQGTLVTVSSGGGGSGGGGSEVTLRESGPALVKPTQTLTLTCTFSGFSLSTYGMGVGWIRQPPGKALEWLANIWWDDDKYYNPSLKNRLTISKDTSKNQVVLTMTNMDPVDTATYYCARIESIGTTYSFDYWGQGTMVTVSSASTKGPSVFPLAPSSKSTSGGTAALGCLVKDYFPEPVTVSWNSGALTSGVHTFPAVLQSSGLYSLSSVVTVPSSSLGTQTYICNVNHKPSNTKVDKKVEPKSCDKTHTCPPCPAPEAAGGPSVFLFPPKPKDTLMISRTPEVTCVVVDVSHEDPEVKFNWYVDGVEVHNAKTKPREEQYNSTYRVVSVLTVLHQDWLNGKEYKCKVSNKALPAPIEKTISKAKGQPREPQVYTLPPSREEMTKNQVSLTCLVKGFYPSDIAVEWESNGQPENNYKTTPPVLDSDGSFFLYSKLTVDKSRWQQGNVFSCSVMHEALHNAYTQKSLSLSPGK
light: DTQLTQSPSSLSASVGDRVTITCRASESVSTVIHWYQQKPGKQPKLLIHGASNLESGVPSRFSGSGSGTDFTLTISSLQPEDFATYFCQQHWNDPPTFGQGTKLEIKRGGSGGGGSGEFVLTQSPGTLSLSPGERATLSCERSSGDIGESYVSWYQQKPGQAPRLVIYADDQRPSGIPDRFSGSGSGTDFTLTISRLEPEDFAVYYCQSYDINIDIVFGGGTKVEIKRTVAAPSVFIFPPSDEQLKSGTASVVCLLNNFYPREAKVQWKVDNALQSGNSQESVTEQDSKDSTYSLSSTLTLSKADYEKHKVYACEVTHQGLSSPVTKSFNRGEC

Chain of recombinant human PDGF-BB (P01127 82-190 limits assumed): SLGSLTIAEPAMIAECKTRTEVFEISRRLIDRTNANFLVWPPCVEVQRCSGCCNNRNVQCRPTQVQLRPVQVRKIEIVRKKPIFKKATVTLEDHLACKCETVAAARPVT

The assay addresses recombinant human PDGF-BB (human, UniProt P01127 82-190). The experiment in a line: cell-based or functional assay.
Consider B1, for which the “NIH-3T3 hPDGF-BB Potency IC50” value was determined as 298 pM. Consider B2, for which the “NIH-3T3 hPDGF-BB Potency IC50” value was 95 pM. Take B3: the “NIH-3T3 hPDGF-BB Potency IC50” value was 148 pM.

With B4, the “NIH-3T3 hPDGF-BB Potency IC50” value was determined as 109 pM. The same measure for B5: 176 pM; for B6: 204 pM.

(Values after patent US20170015742A1 (published 2017).)
